Data from PMC5572738.

Molecular target: T1, bacteriorhodopsin (BR) from Halobacterium salinarum (Halobacterium salinarum), P02945
T1 chain: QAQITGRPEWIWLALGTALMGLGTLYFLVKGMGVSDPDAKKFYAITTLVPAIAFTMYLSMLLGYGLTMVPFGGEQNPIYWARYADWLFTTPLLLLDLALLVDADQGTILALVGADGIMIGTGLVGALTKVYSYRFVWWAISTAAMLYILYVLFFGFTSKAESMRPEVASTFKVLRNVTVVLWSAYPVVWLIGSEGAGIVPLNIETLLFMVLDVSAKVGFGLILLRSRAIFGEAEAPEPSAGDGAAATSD
Experiment: SEC; Sephadex 200 column, BR solubilised in DDM; elution position compared with Blue Dextran, alcohol dehydrogenase (150 kDa) and bovine serum albumin (66 kDa)
Conditions: remark: other sources report otherwise

stoichiometry N: 3
B1: bacteriorhodopsin (BR) from Halobacterium salinarum, P02945 14-262 (natural protein)
chain: QAQITGRPEWIWLALGTALMGLGTLYFLVKGMGVSDPDAKKFYAITTLVPAIAFTMYLSMLLGYGLTMVPFGGEQNPIYWARYADWLFTTPLLLLDLALLVDADQGTILALVGADGIMIGTGLVGALTKVYSYRFVWWAISTAAMLYILYVLFFGFTSKAESMRPEVASTFKVLRNVTVVLWSAYPVVWLIGSEGAGIVPLNIETLLFMVLDVSAKVGFGLILLRSRAIFGEAEAPEPSAGDGAAATSD
modifications: here or on the partner: retinal chromophore attached in a Schiff base linkage to a lysine residue in the seventh helix; retinal chromophore attached in a Schiff base linkage to a lysine residue in the seventh helix
